Data as given in the supplement of paper PMC12764529.
± gives the half width of the 95% confidence interval.

How the values were obtained:
[1] = folding stability dG unfold from trypsin proteolysis; higher = more stable
In short: (§1)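 Unfolding free energy was derived, per protease or combined, against a sequence-predicted unfolded-state K50 and a shared folded-state K50, starting from K50 inferred by Bayesian fitting of sequencing counts. Digestion with trypsin and chymotrypsin was carried out on designed mini-proteins under 80 residues without cysteine in a PA-tagged cDNA display construct. Only designs with AlphaFold2 dimer inter-PAE above 15 were kept.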

[2] = folding stability dG unfold from chymotrypsin proteolysis; higher = more stable
In short: as §1

[3] = folding stability dG unfold (combined trypsin and chymotrypsin); higher = more stable
In short: as §1

SKTVEITLTNEDGSTVTITFNEETGKIVIKVPPNVSVEQIKALLRKLLPPGAEVTITRTPNGYYEIEVKPSA [r9_933_TrROS_Hall]
folding stability dG unfold [1]: 3.68 ± 0.13 kcal/mol | folding stability dG unfold [2]: 4.41 ± 0.13 kcal/mol | folding stability dG unfold [3]: 4.14 ± 0.098 kcal/mol

SKTVVIKIDNRVPVPKSDKYVPIKEEFFLKVINEIKKKGYKVIITGANPDNPLAKEVAKKAKELGFEVVGSA [r9_468_TrMRF]
folding stability dG unfold [1]: 0.992 ± 0.014 kcal/mol | folding stability dG unfold [2]: 0.805 ± 0.082 kcal/mol | folding stability dG unfold [3]: 0.922 ± 0.065 kcal/mol

SKTVVVEINGYLIVVEEKKLENGETYYTVKIVNKKTKKVIEVKAKSKEEAEKAVLEALRKLFPDEELKKLSA [r9_749_TrROS_Hall]
folding stability dG unfold [1]: 3.05 ± 0.15 kcal/mol | folding stability dG unfold [2]: 2.45 ± 0.075 kcal/mol | folding stability dG unfold [3]: 2.51 ± 0.35 kcal/mol

SKVKIVKVEYDKETNVVTVTIYDEKTKKKIEIRYTPGKVEIVVEIDGKKLVLKFKTKEEALEAAKKLLKKSA [r9_527_TrROS_Hall]
folding stability dG unfold [1]: 2.72 ± 0.089 kcal/mol | folding stability dG unfold [2]: 3.94 ± 0.079 kcal/mol | folding stability dG unfold [3]: 3.61 ± 0.2 kcal/mol

SKVKPGEKVEYVEITITVDVKSVEELEKKLRELLGVKEVKVTVTEENGKLTLTIVVKSKEEADKLKELLSSA [r9_764_TrROS_Hall]
folding stability dG unfold [1]: 1.22 ± 0.031 kcal/mol | folding stability dG unfold [2]: 1.73 ± 0.066 kcal/mol | folding stability dG unfold [3]: 1.47 ± 0.16 kcal/mol

SKVKVEVVEVKYNKETKKFTVKLKVYNEDGELIEEIELEFPESEEEVLKKAEELAKELAEKYGLKIEIKPSA [r9_31_TrROS_Hall]
folding stability dG unfold [1]: 2.41 ± 0.12 kcal/mol | folding stability dG unfold [2]: 3.89 ± 0.085 kcal/mol | folding stability dG unfold [3]: 3.56 ± 0.12 kcal/mol

SKVRELLREIARPHGMPITDVKVEPPPDGWHKVTFQIQFPMKDPNGQPMRRMTFPATITVRNGKITEITISA [r9_519_TrROS]
folding stability dG unfold [1]: 1.54 ± 0.11 kcal/mol | folding stability dG unfold [2]: 1.56 ± 0.12 kcal/mol | folding stability dG unfold [3]: 1.72 ± 0.34 kcal/mol

SKYRILIHTPNPGMPPEEIIDELEEPGFKDVEVVDSPSELKELPPNYDIVIMFHNGQFQISIFPPEELDKSA [r9_750_TrROS]
folding stability dG unfold [1]: 0.316 ± 0.14 kcal/mol | folding stability dG unfold [2]: 1.4 ± 0.31 kcal/mol | folding stability dG unfold [3]: 0.937 ± 0.2 kcal/mol

SLDKARDILREHGMEPTSIDVVEDGWVKVTWEYPGNKVEIFIPEDGNIMIEFRNPNNGQRVERTIPVDDVSA [r9_2_TrROS]
folding stability dG unfold [1]: -0.489 ± 0.2 kcal/mol | folding stability dG unfold [2]: 0.753 ± 0.14 kcal/mol | folding stability dG unfold [3]: 0.472 ± 0.15 kcal/mol

SLKPGETKTLTLLIRTKDPEKTAEELAEEARKEIEELLPPGVKIEVKVTSVEPLPETGEVDVTVEVTVTASA [r9_706_TrMRF]
folding stability dG unfold [1]: 3.02 ± 0.19 kcal/mol | folding stability dG unfold [2]: 3.01 ± 0.06 kcal/mol | folding stability dG unfold [3]: 2.97 ± 0.13 kcal/mol

SLSEEEAKDNPEEANEKMQPPPVPPIPLPVPIRNPDNKQEFPAPFEIRTLPNHLEFRFPGNGKPFPVPIDSA [r9_548_TrROS]
folding stability dG unfold [1]: 2.53 ± 0.24 kcal/mol | folding stability dG unfold [2]: 2.87 ± 0.11 kcal/mol | folding stability dG unfold [3]: 2.63 ± 0.28 kcal/mol

SLSEEELKKKLEELKKKLKPPKPKVKKVKVKIKNKETNEEIEEEVEIVETPDTVYIYNKKTGKLFKFKIKSA [r9_548_TrROS_Hall]
folding stability dG unfold [1]: 0.935 ± 0.11 kcal/mol | folding stability dG unfold [2]: 1.95 ± 0.24 kcal/mol | folding stability dG unfold [3]: 1.73 ± 0.29 kcal/mol

SLSPSTPISSEEEAKEAAEKLAEEVREELGEDLPIVVDIERKELEDGTIVVKFTFYVPETGEKLLEVEVGSA [r9_794_JUSTAS]
folding stability dG unfold [1]: 1.2 ± 0.097 kcal/mol | folding stability dG unfold [2]: 1.56 ± 0.049 kcal/mol | folding stability dG unfold [3]: 1.27 ± 0.16 kcal/mol

SMAKVTGYPDIFLVTIYKDGEEKTIPVNFEELVELLKKGVKKVEFTTDNPEFAEKFYKLVKSLGVPVNLKSA [r9_810_TrMRF]
folding stability dG unfold [1]: 1.44 ± 0.016 kcal/mol | folding stability dG unfold [2]: 2.7 ± 0.04 kcal/mol | folding stability dG unfold [3]: 2.33 ± 0.044 kcal/mol

SMDLRLEVVSVEIEPEGRTLRIRVRVRLTALDPDDPDLPVPVLEVEVEIPIPLPEPLPLPVPNDPRALAASA [r9_357_TrMRF]
folding stability dG unfold [1]: 1.63 ± 0.11 kcal/mol | folding stability dG unfold [2]: 2.75 ± 0.037 kcal/mol | folding stability dG unfold [3]: 2.25 ± 0.21 kcal/mol

SMDPGDPILITIKIPPVPVYRYKRDPDGNPKGYEPVPMPSQELVIIIPANDLEKLLDLLQPFGLDVEIIPSA [r9_167_TrROS]
folding stability dG unfold [1]: 1.58 ± 0.071 kcal/mol | folding stability dG unfold [2]: 2.44 ± 0.083 kcal/mol | folding stability dG unfold [3]: 2.08 ± 0.13 kcal/mol

SMEEVKEALRKAGIDVPVTKIETEKLPDGSYKVTLTVGDKKVLTVYVPPEPPEPPVFYRTPPNGSREPVLSA [r9_442_JUSTAS]
folding stability dG unfold [1]: 0.291 ± 0.12 kcal/mol | folding stability dG unfold [2]: 0.528 ± 0.27 kcal/mol | folding stability dG unfold [3]: 0.504 ± 0.18 kcal/mol

SMEITLLSTDPTPGGMTTALWETPNRKVTIFKPPSENYYIVTVEIPGTGKTKTLRFPKNVSPEEIVKKLGSA [r9_522_JUSTAS]
folding stability dG unfold [1]: 1.88 ± 0.034 kcal/mol | folding stability dG unfold [2]: 1.55 ± 0.091 kcal/mol | folding stability dG unfold [3]: 1.78 ± 0.074 kcal/mol

SMETLEIEITVKVEKDENGKIRKVSVEELKEELEKAGFKITEIEITEVTENTVKIKIKIEKPEEEEEEEESA [r9_225_TrROS_Hall]
folding stability dG unfold [1]: 2.97 ± 0.36 kcal/mol | folding stability dG unfold [2]: 3.26 ± 0.24 kcal/mol | folding stability dG unfold [3]: 3.25 ± 0.55 kcal/mol

SMEVKIELTDEEIEAALEAGYEVEIEVRVVEVEYDEETDEVTVKVEVTITIRPVPPPPEVVVDEETGEILSA [r9_396_TrROS_Hall]
folding stability dG unfold [1]: 2.1 ± 0.23 kcal/mol | folding stability dG unfold [2]: 0.342 ± 0.057 kcal/mol | folding stability dG unfold [3]: 1.27 ± 0.34 kcal/mol

SMFTLVLPDGSVIPVIKGDSTTTVYDPRTGRTLPIPSSTVEENSIEEIVERILAELEKLGVPAQPVEILESA [r9_1211_JUSTAS]
folding stability dG unfold [1]: 1.99 ± 0.035 kcal/mol | folding stability dG unfold [2]: 1.72 ± 0.032 kcal/mol | folding stability dG unfold [3]: 1.84 ± 0.034 kcal/mol
